From IntAct's records for PubMed 11854419

B1: COP9 signalosome complex subunit 1 (Arabidopsis thaliana (Mouse-ear cress)), P45432 (parent)
chain: MERDEEASGPMMEMCTNGGEETSNRRPIISGEPLDIEAYAALYKGRTKIMRLLFIANHCGGNHALQFDALRMAYDEIKKGENTQLFREVVNKIGNRLGEKYGMDLAWCEAVDRRAEQKKVKLENELSSYRTNLIKESIRMGYNDFGDFYYACGMLGDAFKNYIRTRDYCTTTKHIIHMCMNAILVSIEMGQFTHVTSYVNKAEQNPETLEPMVNAKLRCASGLAHLELKKYKLAARKFLDVNPELGNSYNEVIAPQDIATYGGLCALASFDRSELKQKVIDNINFRNFLELVPDVRELINDFYSSRYASCLEYLASLKSNLLLDIHLHDHVDTLYDQIRKKALIQYTLPFVSVDLSRMADAFKTSVSGLEKELEALITDNQIQARIDSHNKILYARHADQRNATFQKVLQMGNEFDRDVRAMLLRANLLKHEYHARSARKL
partner: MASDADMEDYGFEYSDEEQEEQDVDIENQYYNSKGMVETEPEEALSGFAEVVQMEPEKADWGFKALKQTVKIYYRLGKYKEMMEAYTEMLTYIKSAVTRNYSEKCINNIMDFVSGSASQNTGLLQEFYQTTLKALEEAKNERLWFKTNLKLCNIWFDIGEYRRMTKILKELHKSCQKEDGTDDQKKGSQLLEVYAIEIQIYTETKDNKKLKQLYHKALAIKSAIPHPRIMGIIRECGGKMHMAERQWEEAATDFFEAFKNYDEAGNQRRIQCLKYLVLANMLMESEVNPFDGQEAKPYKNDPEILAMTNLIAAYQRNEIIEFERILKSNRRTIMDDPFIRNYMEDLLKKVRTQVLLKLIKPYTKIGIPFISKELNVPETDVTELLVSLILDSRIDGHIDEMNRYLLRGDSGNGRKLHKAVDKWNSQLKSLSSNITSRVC
B2: COP9 signalosome complex subunit 1 (Arabidopsis thaliana (Mouse-ear cress)), P45432 (parent)
chain: B1 chain
partner: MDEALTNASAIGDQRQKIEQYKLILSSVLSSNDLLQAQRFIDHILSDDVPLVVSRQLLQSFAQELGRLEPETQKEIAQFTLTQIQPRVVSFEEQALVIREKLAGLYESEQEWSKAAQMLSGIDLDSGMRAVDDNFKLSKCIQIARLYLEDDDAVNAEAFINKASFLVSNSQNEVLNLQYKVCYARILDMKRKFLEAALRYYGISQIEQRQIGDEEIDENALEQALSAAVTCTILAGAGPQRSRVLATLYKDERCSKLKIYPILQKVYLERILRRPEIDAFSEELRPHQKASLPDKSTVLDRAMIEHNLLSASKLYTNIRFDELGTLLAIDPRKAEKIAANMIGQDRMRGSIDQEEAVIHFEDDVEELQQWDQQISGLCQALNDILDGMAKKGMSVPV

Variants of: B1
Conditions: with csn2_arath CSN2, Q8W207

Row | effect of a mutation on the interaction | Variant
1 | disrupting interaction | MERDEEASGPMMEMCTNGGEETSNRRPIISGEPLDIEAYAALYKGRTKIMRLLFIANHCGGNHALQFDALRMAYDEIKKGENTQLFREVVNKIGNRLGEKYGMDLAWCEAVDRRAEQKKVKLENELSSYRTNLIKESIRMGYNDFGDFYYACGMLGDAFKNYIRTRDYCTTTKHIIHMCMNAILVSIEMGQFTHVTSYVNKAEQNPETLEPMVNAKLRCASRLAHLELKKYKLAARKFLDVNPELGNSYNEVIAPQDIATYGGLCALASFDRSELKQKVIDNINFRNFLELVPDVRELINDFYSSRYASCLEYLASLKSNLLLDIHLHDHVDTLYDQIRKKALIQYTLPFVSVDLSRMADAFKTSVSGLEKELEALITDNQIQARIDSHNKILYARHADQRNATFQKVLQMGNEFDRDVRAMLLRANLLKHEYHARSARKL [G222R]

Variants of: B2
Conditions: with csn4_arath CSN4, Q8L5U0

Row | effect of a mutation on the interaction | Variant
2 | disrupting interaction | MERDEEASGPMMEMCTNGGEETSNRRPIISGEPLDIEAYAALYKGRTKIMRLLFIANHCGGNHALQFDALRMAYDEIKKGENTQLFREVVNKIGNRLGEKYGMDLAWCEAVDRRAEQKKVKLENELSSYRTNLIKESIRMGYNDFGDFYYACGMLGDAFKNYIRTRDYCTTTKHIIHMCMNAILVSIEMGQFTHVTSYVNKAEQNPETLEPMVNAKLRCASRLAHLELKKYKLAARKFLDVNPELGNSYNEVIAPQDIATYGGLCALASFDRSELKQKVIDNINFRNFLELVPDVRELINDFYSSRYASCLEYLASLKSNLLLDIHLHDHVDTLYDQIRKKALIQYTLPFVSVDLSRMADAFKTSVSGLEKELEALITDNQIQARIDSHNKILYARHADQRNATFQKVLQMGNEFDRDVRAMLLRANLLKHEYHARSARKL [G222R]
